Five sequences from the supplement of paper PMC5998384 can be followed below.

Data set [1] has as its system HeLa Kyoto. The data set can be described thus: melting temperature (median over replicates), in situ; higher = more thermally stable.
In data set [2] the test system is HeLa Kyoto. The data set can be described thus: thermal stability score vs G1/S (z-score of summed log2 fold changes over temperatures); higher = more thermally stable than in G1/S.
In data set [3] the test system is HeLa Kyoto. In words: solubility in G1/S (NP-40 vs SDS abundance) (log2 ratio); higher = more soluble. To be noted: cell cycle stage: G1/S.
In data set [4] the test system is HeLa Kyoto. The data set can be described thus: solubility change mitosis vs G1/S (difference of NP-40 vs SDS log2 ratios) (log2 ratio difference); higher = more soluble in mitosis.
The mark [5] stands for this setting: cell cycle stage: early G1 (4.5 h after nocodazole release).
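Throughout, for melting temperature (median over replicates), in situ: HeLa Kyoto cells synchronized by double thymidine or nocodazole block, proteins quantified by TMT10plex mass spectrometry, three independent biological replicates.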
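Throughout, for solubility change mitosis vs G1/S (difference of NP-40 vs SDS log2 ratios): synchronized HeLa Kyoto cells (double thymidine block for G1/S, nocodazole release for mitosis), protein amounts in NP-40 versus SDS lysates quantified by mass spectrometry, three biological replicates.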
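Throughout, for solubility in G1/S (NP-40 vs SDS abundance): HeLa Kyoto cells arrested at G1/S by double thymidine block, proteins quantified by TMT10plex mass spectrometry in mild NP-40 versus SDS extracts, three biological replicates.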
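Throughout, for thermal stability score vs G1/S (z-score of summed log2 fold changes over temperatures): synchronized HeLa Kyoto cells, proteins quantified by TMT10plex mass spectrometry, three biological replicates, mitosis taken 0.5 h after nocodazole release, G1/S directly after double thymidine block.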

For the sequence “MAGAIASRMSFSSLKRKQPKTFTVRIVTMDAEMEFNCEMKWKGKDLFDLVCRTLGLRETWFFGLQYTIKDTVAWLKMDKKVLDHDVSKEEPVTFHFLAKFYPENAEEELVQEITQHLFFLQVKKQILDEKIYCPPEASVLLASYAVQAKYGDYDPSVHKRGFLAQEELLPKRVINLYQMTPEMWEERITAWYAEHRGRARDEAEMEYLKIAQDLEMYGVNYFAIRNKKGTELLLGVDALGLHIYDPENRLTPKISFPWNEIRNISYSDKEFTIKPLDKKIDVFKFNSSKLRVNKLILQLCIGNHDLFMRRRKADSLEVQQMKAQAREEKARKQMERQRLAREKQMREEAERTRDELERRLLQMKEEATMANEALMRSEETADLLAEKAQITEEEAKLLAQKAAEAEQEMQRIKATAIRTEEEKRLMEQKVLEAEVLALKMAEESERRAKEADQLKQDLQEAREAERRAKQKLLEIATKPTYPPMNPIPAPLPPDIPSFNLIGDSLSFDFKDTDMKRLSMEIEKEKVEYMEKSKHLQEQLNELKTEIEALKLKERETALDILHNENSDRGGSSKHNTIKKLTLQSAKSRVAFFEEL [NF2]”, the values for the melting temperature in the data set with HeLa Kyoto [1] (cell cycle stage: G1/S) and in the data set with HeLa Kyoto [1] (cell cycle stage: mitosis) were 51.6 °C and 50.7 °C, respectively. Moreover, the thermal stability score in the data set on HeLa Kyoto [2] (setting [5]) is 0.0456; with HeLa Kyoto [2] (cell cycle stage: mitosis) it was 0.294. For the same sequence, in the data set with HeLa Kyoto [3], the “solubility in G1/S (log2)” value was -0.161. In addition, in the data set with HeLa Kyoto [4], the “solubility change mitosis (log2)” value is -0.0393.
On to “MAGARAAAAAASAGSSASSGNQPPQELGLGELLEEFSRTQYRAKDGSGTGGSKVERIEKRCLELFGRDYCFSVIPNTNGDICGHYPRHIVFLEYESSEKEKDTFESTVQVSKLQDLIHRSKMARCRGRFVCPVILFKGKHICRSATLAGWGELYGRSGYNYFFSGGADDAWADVEDVTEEDCALRSGDTHLFDKVRGYDIKLLRYLSVKYICDLMVENKKVKFGMNVTSSEKVDKAQRYADFTLLSIPYPGCEFFKEYKDRDYMAEGLIFNWKQDYVDAPLSIPDFLTHSLNIDWSQYQCWDLVQQTQNYLKLLLSLVNSDDDSGLLVHCISGWDRTPLFISLLRLSLWADGLIHTSLKPTEILYLTVAYDWFLFGHMLVDRLSKGEEIFFFCFNFLKHITSEEFSALKTQRRKSLPARDGGFTLEDICMLRRKDRGSTTSLGSDFSLVMESSPGATGSFTYEAVELVPAGAPTQAAWRKSHSSSPQSVLWNRPQPSEDRLPSQQGLAEARSSSSSSSNHSDNFFRMGSSPLEVPKPRSVDHPLPGSSLSTDYGSWQMVTGCGSIQERAVLHTDSSLPFSFPDELPNSCLLAALSDRETRLQEVRSAFLAAYSSTVGLRAVAPSPSGAIGGLLEQFARGVGLRSISSNAL [MTMR14]”, for which the melting temperature in the data set with HeLa Kyoto [1] (cell cycle stage: G1/S) was determined as 52.8 °C. Also, the thermal stability score with HeLa Kyoto [2] (setting [5]) is -0.497; with HeLa Kyoto [2] (cell cycle stage: mitosis), -0.428. In addition, in the data set on HeLa Kyoto [3], the “solubility in G1/S (log2)” value is -0.145. Also, the “solubility change mitosis (log2)” value with HeLa Kyoto [4] was -0.0972.
For “MAGASVKVAVRVRPFNARETSQDAKCVVSMQGNTTSIINPKQSKDAPKSFTFDYSYWSHTSTEDPQFASQQQVYRDIGEEMLLHAFEGYNVCIFAYGQTGAGKSYTMMGRQEPGQQGIVPQLCEDLFSRVSENQSAQLSYSVEVSYMEIYCERVRDLLNPKSRGSLRVREHPILGPYVQDLSKLAVTSYADIADLMDCGNKARTVAATNMNETSSRSHAVFTIVFTQRCHDQLTGLDSEKVSKISLVDLAGSERADSSGARGMRLKEGANINKSLTTLGKVISALADMQSKKRKSDFIPYRDSVLTWLLKENLGGNSRTAMIAALSPADINYEETLSTLRYADRTKQIRCNAIINEDPNARLIRELQEEVARLRELLMAQGLSASALEGLKTEEGSVRGALPAVSSPPAPVSPSSPTTHNGELEPSFSPNTESQIGPEEAMERLQETEKIIAELNETWEEKLRKTEALRMEREALLAEMGVAVREDGGTVGVFSPKKTPHLVNLNEDPLMSECLLYHIKDGVTRVGQVDMDIKLTGQFIREQHCLFRSIPQPDGEVVVTLEPCEGAETYVNGKLVTEPLVLKSGNRIVMGKNHVFRFNHPEQARLERERGVPPPPGPPSEPVDWNFAQKELLEQQGIDIKLEMEKRLQDLENQYRKEKEEADLLLEQQRLYADSDSGDDSDKRSCEESWRLISSLREQLPPTTVQTIVKRCGLPSSGKRRAPRRVYQIPQRRRLQGKDPRWATMADLKMQAVKEICYEVALADFRHGRAEIEALAALKMRELCRTYGKPDGPGDAWRAVARDVWDTVGEEEGGGAGSGGGSEEGARGAEVEDLRAHIDKLTGILQEVKLQNSSKDRELQALRDRMLRMERVIPLAQDHEDENEEGGEVPWAPPEGSEAAEEAAPSDRMPSARPPSPPLSSWERVSRLMEEDPAFRRGRLRWLKQEQLRLQGLQGSGGRGGGLRRPPARFVPPHDCKLRFPFKSNPQHRESWPGMGSGEAPTPLQPPEEVTPHPATPARRPPSPRRSHHPRRNSLDGGGRSRGAGSAQPEPQHFQPKKHNSYPQPPQPYPAQRPPGPRYPPYTTPPRMRRQRSAPDLKESGAAV [KIF1C]”, the melting temperature was found to be 48.5 °C with HeLa Kyoto [1] (cell cycle stage: G1/S) and 50.2 °C in the data set on HeLa Kyoto [1] (cell cycle stage: mitosis). For the same sequence, the thermal stability score in the data set with HeLa Kyoto [2] (setting [5]) was found to be 0.369; with HeLa Kyoto [2] (cell cycle stage: mitosis) it was 0.754. The “solubility in G1/S (log2)” value in the data set with HeLa Kyoto [3] was -0.0137. The “solubility change mitosis (log2)” value in the data set with HeLa Kyoto [4] is -0.0384.
For the sequence “MAGDLSAGFFMEELNTYRQKQGVVLKYQELPNSGPPHDRRFTFQVIIDGREFPEGEGRSKKEAKNAAAKLAVEILNKEKKAVSPLLLTTTNSSEGLSMGNYIGLINRIAQKKRLTVNYEQCASGVHGPEGFHYKCKMGQKEYSIGTGSTKQEAKQLAAKLAYLQILSEETSVKSDYLSSGSFATTCESQSNSLVTSTLASESSSEGDFSADTSEINSNSDSLNSSSLLMNGLRNNQRKAKRSLAPRFDLPDMKETKYTVDKRFGMDFKEIELIGSGGFGQVFKAKHRIDGKTYVIKRVKYNNEKAEREVKALAKLDHVNIVHYNGCWDGFDYDPETSDDSLESSDYDPENSKNSSRSKTKCLFIQMEFCDKGTLEQWIEKRRGEKLDKVLALELFEQITKGVDYIHSKKLIHRDLKPSNIFLVDTKQVKIGDFGLVTSLKNDGKRTRSKGTLRYMSPEQISSQDYGKEVDLYALGLILAELLHVCDTAFETSKFFTDLRDGIISDIFDKKEKTLLQKLLSKKPEDRPNTSEILRTLTVWKKSPEKNERHTC [EIF2AK2]”, the values for the melting temperature in the data set with HeLa Kyoto [1] (cell cycle stage: G1/S) and in the data set with HeLa Kyoto [1] (cell cycle stage: mitosis) were 47.1 °C and 48 °C, respectively. In addition, the thermal stability score in the data set with HeLa Kyoto [2] (setting [5]) was 1.01; with HeLa Kyoto [2] (cell cycle stage: mitosis), 3.12. The “solubility in G1/S (log2)” value in the data set with HeLa Kyoto [3] was -0.283. Further, in the data set on HeLa Kyoto [4], the “solubility change mitosis (log2)” value was -0.0511.
Turning to “MAGFWVGTAPLVAAGRRGRWPPQQLMLSAALRTLKHVLYYSRQCLMVSRNLGSVGYDPNEKTFDKILVANRGEIACRVIRTCKKMGIKTVAIHSDVDASSVHVKMADEAVCVGPAPTSKSYLNMDAIMEAIKKTRAQAVHPGYGFLSENKEFARCLAAEDVVFIGPDTHAIQAMGDKIESKLLAKKAEVNTIPGFDGVVKDAEEAVRIAREIGYPVMIKASAGGGGKGMRIAWDDEETRDGFRLSSQEAASSFGDDRLLIEKFIDNPRHIEIQVLGDKHGNALWLNERECSIQRRNQKVVEEAPSIFLDAETRRAMGEQAVALARAVKYSSAGTVEFLVDSKKNFYFLEMNTRLQVEHPVTECITGLDLVQEMIRVAKGYPLRHKQADIRINGWAVECRVYAEDPYKSFGLPSIGRLSQYQEPLHLPGVRVDSGIQPGSDISIYYDPMISKLITYGSDRTEALKRMADALDNYVIRGVTHNIALLREVIINSRFVKGDISTKFLSDVYPDGFKGHMLTKSEKNQLLAIASSLFVAFQLRAQHFQENSRMPVIKPDIANWELSVKLHDKVHTVVASNNGSVFSVEVDGSKLNVTSTWNLASPLLSVSVDGTQRTVQCLSREAGGNMSIQFLGTVYKVNILTRLAAELNKFMLEKVTEDTSSVLRSPMPGVVVAVSVKPGDAVAEGQEICVIEAMKMQNSMTAGKTGTVKSVHCQAGDTVGEGDLLVELE [PCCA]”, the figures for the melting temperature with HeLa Kyoto [1] (cell cycle stage: G1/S) and in the data set on HeLa Kyoto [1] (cell cycle stage: mitosis) were 53.7 °C and 53.1 °C, respectively. In addition, the thermal stability score is -0.863 in the data set with HeLa Kyoto [2] (setting [5]) and -1.1 in the data set with HeLa Kyoto [2] (cell cycle stage: mitosis). Further, in the data set on HeLa Kyoto [3], the “solubility in G1/S (log2)” value came to 0.0361. In addition, the “solubility change mitosis (log2)” value with HeLa Kyoto [4] was -0.122.
